A short description of the data set: soluble on expression in E. coli; label from the status in PepcDB or PDB records.
In the case of “MKAFNYYAPTEIIFGCGRVQEIGSITAQYGKKALLVTVPEFPEVKELYEKVKKSLRENGVEVVHFDGVIPNPTTDVVTEGANMAKAAGVDVVIGLGGGSSIDTAKAIAVEATHPGTAWDYNCHTPGPTSATLPIIAIGTTAGTGSQCTQCAVITKTSEKDKSAIWHKNIFPKVAIVDPEVTVTMPKSVTAQTGFDAFAHNFEAYLSVKTSPLVEMMAIEAIKMIKEYLPKALENPNDIEARSKMSLADTLGGLTNSNAGVTLPHGLGMQVGGHAPHVSHGQALAIIYPQFTRYTYAWAIEKFAKVGRIFNPALNELSDEEAAKEACVAIDDFLKKIGLWIGFKDVNVTKEQIREIADDGQVLGDYLNNPRVATIDEMYELLMNCYERKE”, the “soluble on expression in E. coli” value was “soluble”. The entry for “MKAIILAGGHSVRFGKPKAFAEVNGETFYSRVIKTLESTNMFNEIIISTNAQLATQFKYPNVVIDDENHNDKGPLAGIYTIMKQHPEEELFFVVSVDTPMITGKAVSTLYQFLVSHLIENHLDVAAFKEDGRFIPTIAFYSPNALGAITKALHSDNYSFKNIYHELSTDYLDVRDVDAPSYWYKNINYQHDLDALIQKLLEHHHHHH” is “soluble”; for “MKALALIAHDAKKDEMVAFCLRHKDVLARYPLLATGTTGARIQEATGLAVERVLSGPLGGDLQIGARVAEGKVLAVVFLQDPLTAKPHEPDVQALMRVCNVHGVPLATNLVAAEALIAWIRKGTPQ” it is “soluble”. For “MKALIFAAGFGERMRPLTEHTPKPLLSVGGAPLIVWHLRKLAALGVDEAVINTSWLAEQFPQLLGDGSAYGLRLTYSYEGTTPLETGGGMLHALPLLGDAPFLLINGDIWTDFDFSRLSHAPKGLAELVLVDRPSYAARADFALDADGKVRVDLPATLTYSGIGMYRPALLRDWQSVNGPLPEQVGTAPRFALAPILRAKMAQGLIDGIHHPGRWTDVGTPQRLAALDAQLLGDGGLEHHHHHH”, the “soluble on expression in E. coli” value is listed as “not soluble”.

With “MKAPFFNAPIFRQLIEFKSSTYTYIIGCHKTGKAVIIDPVVDTVSRDIQIIRDLNLDLIYGLNTHVHADHITGTNSLKTVFPTMKSVLSSKSGGEADKYVSDGEIIEIGGLKLEVRETPGHTNGCLTYVEHSLRSAFTGDALLIRACGRTDFQQGNPASLFDSVHDKIFTLPEDYVVYVGHNYNGVLQTTVWEEKNLNPRLTKSKDQFVEIMKNLKLNYPKQIDKAVPANMVDGKGH”, the “soluble on expression in E. coli” value is recorded as “not soluble”.

For “MKAQMESWQDIQEYVKNNKKKHKRRMANDAMKNVNELGFPFTYFEDTYQFAIKTSIGMVDYFGTTGTWVVRKNQDRGRGLKKLKKYLEHPVPTKEIKKTKGNQSWMKNNR”, the “soluble on expression in E. coli” value is “not soluble”. Under “MKASIYDFTLKELSQLLKPSFRAKQLYLWLYAKYKTSFKDMQNNFSKDFIAYLEREFALRTIEITHVRESVDGSKKYLFKSLRDNHTFEAVLLKMKDKKIDAETNAILEREKYTVCVSCQIGCQVGCSFCFTQKGGFVRNLKASEIIQQALLIKEDNNLPLEKALNIVFMGMGEPLNNLDEVCKAIEIFNTGMQISPKRITISTSGVADKIPILAGKNLGVQLAISLHAVDDKTRSSLMPLNKKYNIECVLNEVRKWPLEQRKRVMFEYLLIKDLNDSLDCAKKLLKLLNGIKSKVNLILFNPHEGSKFERPSLENARMFADFLNSKGLLCTIRESKALDIEAACGQLREKKLSQQILEHHHHHH” stands “soluble”; under “MKASTVLQIAYLVSQESKCCSWKVGAVIEKNGRIISTGYNGSPAGGVNCCDYAAEQGWLLNKPKHAIIQGHKPECVSFGSTDRFVLAKEHRSAHSEWSSKNEIHAELNAILFAAENGSSIEGATMYVTLSPCPDCAKAIAQSGIKKLVYCETYDKNKPGWDDILRNAGIEVFNVPKKNLNKLNWENINEFCGE”, “soluble”.

In the case of “MKATPAQVPMKERIKEVATDMLIAHGSSGFRFQQIAQALDCTRGNIHYHYRHKHELVEDVTIEYCQRTIGHFDQIWLSDSTLSQKIQLSMQFNEMRYLKRNPQGDTSHPWSLIARMRLESALITPAAREALARYSHELQRSVVAGVRRAVEKGELRPDTPVEMVALPIIEMANSADPITRDAGRFDRLRQMYQAVDRLIHDAYGMAGHRPAP”, the “soluble on expression in E. coli” value is given as “not soluble”.

Consider “MKAVIVYASVHHGNTKKIAEAMASVISADVIDVTRKIKPDLSGYDVIGFASGVYFHTFHERIKKCIEENLFSKGQKVFLVATCGLGYRDYTKGIKDILAKKHVSFIGNFQCRGWDTYGIFGKIGGIAKKHPNDRDLKEAQQFVLKTVCEKTIDDVALLEHHHHHH”, for which the “soluble on expression in E. coli” value is “soluble”. Take “MKAVMLLSGGIDSSTLLYYLLDGGYEVHALTFFYGQKHSKEIESAEKVAKAAKVRHLKVDISTIHDLISYGALTGEEEVPKAFYSEEVQRRTIVPNRNMILLSIAAGYAVKIGAKEVHYAAHLSDYSIYPDCRKEFVKALDTAVYLANIWTPVEVRAPFVDMTKADIVRLGLKLGVPYELTWSCYEGGDRPCLSCGTCLERTEAFLANGVKDPLLSDEEWKNAVKIYEEMRARNEGKSD”: the “soluble on expression in E. coli” value is listed as “not soluble”. In the case of “MKAVSPVRPSGRKAPSGCGGGELALRCLAEHGHSLGGSAAAAAAAAAARCKAAEAAADEPALCLQCDMNDCYSRLRRLVPTIPPNKKVSKVEILQHVIDYILDLQLALETHPALLRQPPPPAPPHHPAGTCPAAPPRTPLTALNTDPAGAVNKQGDSILCR”, the “soluble on expression in E. coli” value is “soluble”. Under “MKAYTKYLTFNTKKRRELIRITDEVKKAVEESEVKEGLCLVSSMHLTSSVIIQDDEEGLHEDIWEWLEKLAPYRPDYKHHRTGEDNGDAHLKNLLTHLQVVLPITNGKLDLGPWQEIFYAEFDGQRPKRVVIKIIGE” stands “soluble”; under “MKCSKCGREAIYFARYEGRYYCHKHFNELVEGKVKRTIRKYRMIKRGEKVGVAVSGGKDSVVLMHILAKLRKKFPFELVAITIDEGIKGYRDKSVEVARKNAELLGVEHHIYRFKDFIGFTLDETVEIMGPREERVGACSYCGVWRRWLLNKAAEELGVDKLALGLNLDDEVQVFLMNLMRGDVARLGRTGPYYEVIHEGLVPRIKPLREVPEKEIVLYAVLNNIEVDLSECPYATEAFRAEIRDWLNEMEEKHPGTKYQLLRSYDKIFPLLAKTYAKEVKLNRCKICGQPTSGEICKACQFRLQVKEKSENLKFSLTK”, “not soluble”. Under “MKDSAPELNVSSSETEEDKEEAKPDGEKDPDFNQSNGGTKRQKISHQNYIAYQKQVIRRSMRHRKVRGEKALLVSANQTLKELKIQIMHAFSVAPFDQNLSIDGKILSDDCATLGTLGVIPESVILLKADEPIADYAAMDDVMQGKDEFVLGIC” stands “not soluble”. Under “MKDWQLPSHSGPYELRIEVQPKSHHRAHYETEGSRGAVKASAGGHPIVQLHGYLENEPLMLQLFIGTADDRLLRPHAFYQVHRITGKTVSTTSHEAILSNTKVLEIPLLPENSMRAVIDCAGILKLRNSDIELRKGETDIGRKNTRVRLVFRVHVPQPSGRTLSLQVASNPIECSQRS” stands “soluble”; under “MKEDTLLRKLVADGEGVGDDRKVQQIATFFRESRKEDAKTSVPEAVKVTKAIEEMYKKMEVAKNELADAKIVKRNRQEYRKLVNVLEEVPSRAETTRKLGEVKDDLERQHERQKVLEAKLMDRRNHLQAFMIILSNFQRFCAEDDDDDAEVMSNPGEDDDAASVTEKQQEDDVRK”, “not soluble”. “MKEEATTLPQQFIKKYRLLLGEEASDFFSALEQGSVKKGFRWNPLKPAGLDMVQTYHSEELQPAPYSNEGFLGTVNGKSFLHQAGYEYSQEPSAMIVGTAAAAKPGEKVLDLCAAPGGKSTQLAAQMKGKGLLVTNEIFPKRAKILSENIERWGVSNAIVTNHAPAELVPHFSGFFDRIVVDAPCSGEGMFRKDPNAIKEWTEESPLYCQKRQQEILSSAIKMLKNKGQLIYSTCTFAPEENEEIISWLVENYPVTIEEIPLTQSVSSGRSEWGSVAGLEKTIRIWPHKDQGEGHFVAKLTFHGQNQMHKEKKTRKKSKVQMTKEQEKLWTEFSNDFHYEATGRLLVFNDHLWEVPELAPSLDGLKVVRTGLHLGDFKKNRFEPSYALALATKKIENIPCLPITQKEWQSYTAGETFQRDGNQGWVLLVLDKIPVGFGKQVKGTVKNFFPKGLRFH”: the “soluble on expression in E. coli” value is listed as “soluble”.

“MKEFWVWVEPFDRKIVSVALEAGANAVVIPEKGRVEEVKKVGRITVIAPDGDLKLGEDVVYVLIKGKEDEERAAKYPPNVKVIVETTDWTVIPLENLIAQREELYAVVKNAQEAEVALQTLEKGVKGVVLKSRDINEIKKVGQIVSEHEEKLELVTIKITKILPLGLGDRVCVDTISLLHRGEGMLVGNSSGGMFLVHAETEENPYVAARPFRVNAGAVHMYIRVPNNRTKYLCELKAGDKVMVYDYKGRGRVTYVGRAKVERRPMLLIEGRYENKKLSCILQNAETIRLTKPDGTPISVSELKEGDEVLGYVEEAGRHFGMKVEETIIEK”: the “soluble on expression in E. coli” value is “not soluble”. Under “MKEGDTMSWQTHTVFNQPAPLNNSNLFLSDGALCEAVSREGAGWDSDLLASIGQQLGTAESLELGRLANAHPPELLRYDPQGQRLDDVRFHPAWHLLMQGLCANRVHNLAWEEEARAGSFVARAARFVLHAQVEAGTLCPVTMTFAATPLLLQMLPATFHDWLAPLRSDRYDSHLLPGGQKRGLLIGMGMTEKQGGSDVLSNTTHAERLADDSYRLVGHKWFFSVPQSDAHLVLAQAKGGLSCFFVPRFLPDGQRNSVRLERLKDKLGNRSNASAEVEFQDAIGWRLGEEGEGIRHILKMGGMTRLDCALGSHGLMRRAFSVAIYHAHQRQAFGKPLIDQPLMRQTLSRMALCLEGQTALLFRLARAWEQRREAKEALWARLFTPAAKFAICKLGIPFVAEAMEVLGGMGYCEESELPRLYREMPVNSIWEGSGNIMCLDVLRVLTKQHGVYDVLSEAFAEVKGQDRHYDRAVRQLQQRLRKPDEAMGREITQQLFLLGCGAEMLRHASPPLAQAWCQMMLDTRGEMPLPAQVQNDLLLRATGGLR” stands “not soluble”; under “MKEGKWFASANNQNKFLDPRERGNILNYLKVCLLLARAVRRMHAAGLCHSDLSYKNVLIDPEQGHACIIDVDGLVVPGKFPPDVVGTPDFIAPEVVKTSHLLKEDPQRILPNITTDRHALSVLIYMYLFYRHPLRGGKIHDMDDEVRDESLAMGERALFIEHPTDRSNAVKLNQVKPSSLPWADPQKVPYTIMGPYLTQLFEKAFIDGLHDPSKRPTADEWETALVKTVDLIQPCQNTACEQKWYVFSGKTKPVCPYCLEHHHHHH”, “not soluble”; under “MKEIDWANLSFGYMKTDYNVRINFRNGAWGELEVSSDEHLNLHMAATCLHYGQEAFEGLKAFRGKDGKVRIFRLEENAARLQSTCQGILMAELPTERFKEAILKVVKLNERFIPPYETGASLYIRPLLIGTSAQVGVHPAEEYMFVVFVTPVGPYFKGGFSTNPYVIIREFDRAAPHGTGIYKVGGNYAASLRANKKAHDLGYSCEFYLDAKEKKYIDECGAANFFGIKDNTYITPKSSSILPSITNKSLMQLAEDMGIKVERRPIPEEELETFEEAGACGTAAVISPIQRIDDLENGKSYVISKDGKPGPICTKLYNKLRGIQYGDEPDTHGWVTIVE”, “not soluble”. The entry for “MKEKKLNLKKHLNTVVTLNSDYLNLLDLMQITNANFPIGTFSHSFGVETYIRKDIVFDGESLIKALLLYMNEQLLHGDLLAIYQIFKLLPKQKINAIWEIDQMINFQGLARETREGQRRIGQQMVKIYNELFNCELLVEYAERIKNKKSYGNPAVAFALLAMHLKIDLKTALYTHLYSTVAALTQNCVRAIPLGQVKGQKIIYQLKHVYFDDIVNKVFTLDFKTDFCKNIPGLEIAQMEHEDTPVRLFMSLEHHHHHH” is “not soluble”; for “MKELVEIAVPENLVGAILGKGGKTLVEYQELTGARIQISKKGEFLPGTRNRRVTITGSPAATQAAQYLISQRVTYEQGVRASNPQKV” it is “soluble”.

The record behind these values is the DeepSol protein solubility set.
